Source: US20230137139A1, “BIOSYNTHESIS OF CANNABINOIDS AND C[…]” (priority 2020, published 2023)

B1: t861579 (protein)
chain: MGNTTSIAAGRDCLVSAVGPAHVTFQDALLYQTTAVDPYNLNIPVTPAAVTYPQSAEEIAAVVKCASDYDYKVQARSGGHSFGNYGLGGQNGAIVVDMKHFSQFSMDESTFVATIGPGTTLGDLDTELYNAGGRAMAHGICPTIRTGGHLTVGGLGPTARQWGLALDHIEEVEVVLANSSIVRASNTQNQDILFAVKGAAASFGIVTEFKVRTQEAPGLAVQYSFTFNLGSPAQKAKLVKDWQAFIAQENLSWKFYSNLVIFDGQIILEGIFFGSKEEYDELDLEKRFPTSEPGTVLVLTDWLGMIGHALEDTILKLVGDTPTWFYAKSLGFTPDTLIPDSAIDDFFDYIHKTNAGTLAWFVTLSLEGGAINSVSEDATAYGHRDVLFWFQVFVVNPLGPISQTTYDFTNGLYDVLAQAVPESAGHAYLGCPDPKMPDAQRAYWRSNLPRLEDLKGDLDPKDTFHNPQGVQVGP
B2: t861561 (protein)
chain: MGNTTSIAAGRDCLISAVGGNAAHVAFQDQLLYQATAVDVYNLNIPVTPAAVTYPQSADEVAAVVKCASEYDYKVQARSGGHSFGNYGLGGQNGAIVVDMKHFSQFSMDESTYTATIGPGITLGDLDTELYNAGHRAMAHGICPTIRTGGHLTIGGLGPTARQWGLALDHVEEVEVVLANSSIVRASETQNQDVLFAVKGAAASFGIVTEFKVRTEQAPGLAVQYSYTFNLGTPAEKAKLLKDWQAFIAQEDLTWKFYSNMVIFDGQIILEGIFFGSKEEYDALDLEKRFPTSEPGTLLVLTDWLGMVGHSLEDVILRLVGNTPTWFYAKSLGFTPRTLIPDSAIDRFFDYIHETNAGTLAWFVTLSLEGGAINAVPEDATAYGHRDVLFWVQIFMVNPLGPISQTIYDFADGLYDVLAQAVPESAEHAYLGCPDPKMPDAQRAYWRGNLPRLEELKGEFDPKDTFHNPQGVSVAV
B3: t861585 (protein)
chain: MGNTTSIAGRDCLVSALGGNAGLVAFQNQPLYQTTAVHEYNLNIPVTPAAITYPETAEQIAAVVKCASQYDYKVQARSGGHSFGNYGLGGTDGAVVVDMKYFNQFSMDDQTYEAVIGPGTTLGDVDVELYNNGKRAMAHGVCPTISTGGHFTMGGLGPTARQWGLALDHVEEVEVVLANSSIVRASNTQNQEVFFAVKGAAASFGIVTEFKVRTQPAPGIAVQYSYTFNLGSSAEKAQFIKDWQSFVSAKNLTRQFYTNMVIFDGDIILEGLFFGSKEQYEALRLEERFVPKNPGNILVLTDWLGMVGHALEDTILRLVGNTPTWFYAKSLGFTPDTLIPSSGIDEFFKYIENNKAGTSTWFVTLSLEGGAINDVPADATAYGHRDVLFWVQIFMVSPTGPVSSTTYDFADGLYNVLTKAVPESEGHAYLGCPDPKMANAQQKYWRQNLPRLEELKETLDPKDTFHNPQGILPA
modifications: N- and C-terminal signal peptides
B4: t861574 (protein)
chain: MGNTTSIAGRDCLISALGGNSALAAFPNELLWTADVHEYNLNLPVTPAAITYPETAEQIAGIVKCASDYDYKVQARSGGHSFGNYGLGGADGAVVVDMKHFTQFSMDDETYEAVIGPGTTLNDVDIELYNNGKRAMAHGVCPTIKTGGHFTIGGLGPTARQWGLALDHVEEVEVVLANSSIVRASNTQNQDVFFAVKGAAANFGIVTEFKVRTEPAPGLAVQYSYTFNLGSTAEKAQFVKDWQSFISAKNLTRQFYNNMVIFDGDIILEGLFFGSKEQYDALGLEDHFAPKNPGNILVLTDWLGMVGHALEDTILKLVGNTPTWFYAKSLGFRQDTLIPSAGIDEFFEYIANHTAGTPAWFVTLSLEGGAINDIAEDATAYAHRDVLFWVQLFMVNPLGPISDTTYEFTDGLYDVLARAVPESVGHAYLGCPDPRMEDAQQKYWRTNLPRLQELKEELDPKNTFHHPQGVMPA
B5: t861590 (protein)
chain: MGNTTSIAGRDCLISALGGNSALAAFPNELLWTADVHEYNLNLPVTPAAITYPETAEQIAGVVKCASDYDYKVQARSGGHSFGNYGLGGADGAVVVDMKHFTQFSMDDETYEAVIGPGTTLNDVDIELYNNGKRAMAHGVCPTIKTGGHFTIGGLGPTARQWGLALDHVEEVEVVLANSSIVRASNTQNQDVFFAVKGAAANFGIVTEFKVRTEPAPGLAVQYSYTFNLGSTAEKAQFVKDWQSFISAKNLTRQFYNNMVIFDGDIILEGLFFGSKEQYDALGLEDHFAPKNPGNILVLTDWLGMVGHALEDTILKLVGNTPTWFYAKSLGFRQDTLIPSAGIDEFFEYIANHTAGTPAWFVTLSLEGGAINDIAEDATAYAHRDVLFWVQLFMVNPLGPISDTTYEFTDGLYDVLARAVPESVGHAYLGCPDPRMEDAQQKYWRTNLPRLQELKEELDPKNTFHHPQGVMPA
B6: t861571 (protein)
chain: MGNTTSIAGRDCLISALGGNSALAVFPNELLWTADVHEYNLNLPVTPAAITYPETAAQIAGVVKCASDYDYKVQARSGGHSFGNYGLGGADGAVVVDMKHFTQFSMDDETYEAVIGPGTTLNDVDIELYNNGKRAMAHGVCPTIKTGGHFTIGGLGPTARQWGLALDHVEEVEVVLANSSIVRASNTQNQDVFFAVKGAAANFGIVTEFKVRTEPAPGLAVQYSYTFNLGSTAEKAQFVKDWQSFISAKNLTRQFYNNMVIFDGDIILEGLFFGSKEQYDALGLEDHFAPKNPGNILVLTDWLGMVGHALEDTILKLVGNTPTWFYAKSLGFRQDTLIPSAGIDEFFEYIANHTAGTPAWFVTLSLEGGAINDVAEDATAYAHRDVLFWVQLFMVNPVGPISDTTYEFTDGLYDVLARAVPESVGHAYLGCPDPRMEDAQQKYWRTNLPRLQELKEELDPKNTFHHPQGVMPA
B7: t861558 (protein)
chain: MGNTTSIAGRDCLISALGGNSALAAFPNELLWTADVHEYNLNLPVTPAAITYPETAEQIAGVVKCASDYDYKVQARSGGHSFGNYGLGGADGAVVVDMKHFTQFSMDDETYEAVIGPGTTLNDVDIELYNNGKRAMAHGVCPTIKTGGHFTIGGLGPTARQWGLALDHVEEVEVVLANSSIVRASNTQNQDVFFAVKGAAANFGIVTEFKVRTEPAPGLAVQYSYTFNLGSTAEKAQFVKDWQSFISAKNLTRQFYNNMVIFDGDIILEGLFFGSKEQYDALGLEDHFAPKNPGNILVLTDWLGMVGHALEDTILKLVGNTPTWFYAKSLGFRQDTLIPSAGIDEFFEYIANHTAGTPAWFVTLSLEGGAINDIAEDATAYAHRDVLFWVQLFMVNPLGPISDTTYEFTDGLYDVLARAVPESVGHAYLGCPDPRMEDAQQKYWRTNLPRLQELKEELDPKNTFHHPQGVMPA
B8: t861554 (protein)
chain: MGNTTSIAAGRDCLISAVGAANVAFQDQLLYQATAVQPYNLNIPVTPAAVTYPQSADEIAAVVKCASEYGYKVQARSGGHSFGNYGLGGQDGAIVIEMKHFSQFSMDESTFIATIGPGITLGDLDTDLYNAGHRAMAHGICPTIRTGGHLTVGGLGPTARQWGLALDHVEEVEVVLANSSIVRASDTQNQDLFFAIKGAAASFGIVTEFKVRTEQAPGMAVQYSYTFHLGTSAEKAKFVKDWQAFIAQENLTWKFYTNLVIFDDQIILEGIYFGTKEEYDSLGLEQRFPPTDAGTVLILTDWLAMIGHGLEDTILKLVGDTPTWFYAKSLGFTPRALIPDSAIDEFFDYIHENNPGTLAWFVTLSLEGGAINAVPEDATAYGHRDVLFWFQLFVINPLGPISQTTYGFADGLYDVLAQAVPESASHAYMGCPDPRMPNAQRAYWRSNLPKLEELKGYLDPEDIFHNPQGVVPS
B9: t861580 (protein)
chain: MGQTPSSPLADCLNAVCNGRDNCVAFPSAPLYQISWVDRYNLDIEVEPIAVTRPETAEDVSGFVKCAAAHNIKVQAKSGGHSYANYGLGGEDGELVVDLRNFQDFSIDTNTWQATFGAGHKLDDVTEKLHKNGKRAISHGTCPGVGIGGHATIGGLGPESRMWGSCLDHVIGVEVVTADGSIVHASDTENSDLFFALKGAGASFGIVTSFVVKTRPEPGSVVQYSYSVTFAKHADLSPVFRQWQELVMDPGLDRRFGTEFTMHELGVIISGTFYGTDEEFQATGIPDRIPKGKISVVFDDWMAVIAKHAEEAALSLSSISSAFTARSLAFRREDKISPETITNLMNYIDSADRGTLVWFLIFDATGGAISDVPTNATAYSHRDKVMYCQGYGVGIPTLNQQTKDFLSGIINTIQSGAGNTLTTYPGYVDPALTNPQESYWGPNIDTLRAIKSQWDPNDIFHNPQSVRPAAVAA
modifications: Monosporascus sp. mg162

tested on: CBCA production; assay: In vivo TS activity assay, Example 4 CBCAS enzymes with and without signal peptides, no pH adjustment; format: cell-based; details: strains with (Y) or without (N) N-terminal and C-terminal signal peptides; no pH adjustment at Day 4; S. cerevisiae
Description: An assay to detect TS activity was conducted as follows: each thawed glycerol stock of candidate CBCAS transformants was stamped into a well of YEP+4% dextrose media. Samples were incubated at 30° C. in a shaking incubator for 2 days. A portion of each of the resulting cultures was stamped into a well of YEP+4% galactose+1 mM olivetolic acid (FIG. 1 Structure 6a). Samples were incubated at 20° C. and shaken in a shaking incubator for 4 days. Every 24 hours during those 4 days, 2% galactose and 1 mM olivetolic acid were spiked into the cultures. Sodium citrate buffer adjusted to pH 5.5 was added to each well at a final concentration of 100 mM. Samples were incubated at 20° C. and shaken in a shaking incubator for 2 days. A portion of each of the resulting production cultures was stamped into a well of phosphate buffered saline (PBS). Optical measurements were taken on a plate reader, with absorbance measured at 600 nm and fluorescence at 528 nm with 485 nm excitation. Samples were incubated at 30° C. in a shaking incubator for 2 days. 100% methanol was stamped into the production cultures in half-height deepwell plates. Plates were heat sealed and frozen. Samples were then thawed for 30 min and spun down at 4° C. A portion of the supernatant was stamped into half-area 96 well plates. CBCA, THCA, and CBDA production in the samples was quantified via liquid chromatography-mass spectrometry (LC-MS).
A library of 20 CBCAS enzymes selected from Example 1 and 3 was synthesized, including versions of the CBCAS enzymes with and without the N-terminal MFalpha2 signal peptide (SEQ ID NO: 16) and C-terminal HDEL signal peptide (SEQ ID NO: 17). Each candidate enzyme expression construct was transformed into an S. cerevisiae CEN.PK strain that also expressed a prenyltransferase enzyme capable of catalyzing reaction R^4 in FIG. 2. Strain t861555 expressing the A. niger CBCAS identified in Example 1, carrying both the Mfalpha2 and HDEL signal peptides was included in the library screen as a positive control for enzyme activity. Strain t861565 expressed the same A. niger CBCAS without the Mfalpha2 and HDEL signal peptides.
The strains were screened using the assay described in Example 1 with the following exception: at Day 4 samples were not subjected to a pH adjustment and a further 2 days of incubation at 20° C.

Point of comparison: B2, “Average CBCA” value 46161.25 µg/L. Against it:
- B1 — within 1.5-fold, 57912.84 µg/L
- B3 — within 1.5-fold, 39673.45 µg/L
- B4 — within 1.5-fold, 38142.03 µg/L
- B5 — within 1.5-fold, 55852.93 µg/L
- B6 — within 1.5-fold, 54271.76 µg/L
- B7 — 1.7-fold lower, 27898.00 µg/L
- B8 — 8.7-fold lower, 5334.71 µg/L
- B9 — lower, 0.00 µg/L
